B1: Hemojuvelin (Homo sapiens), Q6ZVN8 (parent)
chain: MGEPGQSPSPRSSHGSPPTLSTLTLLLLLCGHAHSQCKILRCNAEYVSSTLSLRGGGSSGALRGGGGGGRGGGVGSGGLCRALRSYALCTRRTARTCRGDLAFHSAVHGIEDLMIQHNCSRQGPTAPPPPRGPALPGAGSGLPAPDPCDYEGRFSRLHGRPPGFLHCASFGDPHVRSFHHHFHTCRVQGAWPLLDNDFLFVQATSSPMALGANATATRKLTIIFKNMQECIDQKVYQAEVDNLPVAFEDGSINGGDRPGGSSLSIQTANPGNHVEIQAAYIGTTIIIRQTAGQLSFSIKVAEDVAMAFSAEQDLQLCVGGCPPSQRLSRSERNRRGAITIDTARRLCKEGLPVEDAYFHSCVFDVLISGDPNFTVAAQAALEDARAFLPDLEKLHLFPSDAGVPLSSATLLAPLLSGLFVLWLCIQ
partner: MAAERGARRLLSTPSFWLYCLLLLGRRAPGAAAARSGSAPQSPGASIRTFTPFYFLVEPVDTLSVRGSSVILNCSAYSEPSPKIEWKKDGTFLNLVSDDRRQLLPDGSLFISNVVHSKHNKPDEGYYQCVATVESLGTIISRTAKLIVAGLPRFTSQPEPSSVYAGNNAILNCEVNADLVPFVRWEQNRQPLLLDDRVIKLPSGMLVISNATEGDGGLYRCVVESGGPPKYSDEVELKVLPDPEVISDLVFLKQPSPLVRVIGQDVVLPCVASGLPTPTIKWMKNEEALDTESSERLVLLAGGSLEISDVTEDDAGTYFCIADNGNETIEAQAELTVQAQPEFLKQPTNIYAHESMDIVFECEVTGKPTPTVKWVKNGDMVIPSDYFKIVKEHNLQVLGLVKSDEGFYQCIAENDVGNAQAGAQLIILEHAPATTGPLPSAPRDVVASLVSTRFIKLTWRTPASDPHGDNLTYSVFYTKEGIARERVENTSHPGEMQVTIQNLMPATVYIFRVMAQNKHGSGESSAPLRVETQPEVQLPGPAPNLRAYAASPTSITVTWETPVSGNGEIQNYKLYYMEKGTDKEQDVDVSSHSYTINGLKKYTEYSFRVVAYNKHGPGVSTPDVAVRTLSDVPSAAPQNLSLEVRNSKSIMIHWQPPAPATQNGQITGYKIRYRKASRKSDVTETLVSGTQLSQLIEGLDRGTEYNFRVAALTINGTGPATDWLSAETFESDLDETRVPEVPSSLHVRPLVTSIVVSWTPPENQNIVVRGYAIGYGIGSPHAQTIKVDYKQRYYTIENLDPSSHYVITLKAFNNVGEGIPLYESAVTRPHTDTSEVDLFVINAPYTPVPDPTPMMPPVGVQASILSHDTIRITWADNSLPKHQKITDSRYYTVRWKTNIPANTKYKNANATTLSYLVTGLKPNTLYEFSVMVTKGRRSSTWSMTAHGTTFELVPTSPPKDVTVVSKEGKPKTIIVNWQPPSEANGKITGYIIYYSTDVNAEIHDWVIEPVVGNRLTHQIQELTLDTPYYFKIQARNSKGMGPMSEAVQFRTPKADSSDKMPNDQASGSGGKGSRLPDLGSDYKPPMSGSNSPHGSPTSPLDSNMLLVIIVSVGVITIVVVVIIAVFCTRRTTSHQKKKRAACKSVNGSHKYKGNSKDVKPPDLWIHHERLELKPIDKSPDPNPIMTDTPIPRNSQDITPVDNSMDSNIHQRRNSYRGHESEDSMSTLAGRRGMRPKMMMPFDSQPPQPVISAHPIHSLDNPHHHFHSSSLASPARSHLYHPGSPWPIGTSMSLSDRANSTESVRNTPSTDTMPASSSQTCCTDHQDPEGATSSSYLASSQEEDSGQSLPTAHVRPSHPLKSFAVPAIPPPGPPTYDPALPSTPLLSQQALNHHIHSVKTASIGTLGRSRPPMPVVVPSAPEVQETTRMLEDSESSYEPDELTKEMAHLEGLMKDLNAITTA

Variants of: B1
Conditions: with neo1_human NEO1, Q92859

effect of a mutation on the interaction	Variant
decreasing interaction strength	D172A

Source: IntAct's records for PubMed 18335997
